In the RNAGym collection of RNA variant scans (doi:10.1073/pnas.2313332121):

B1: TPR t1 (parent)
chain: GACCAAUCUGCCCUCAGAGCUCGAGAACAUCUUCGGAUGCAGAGGAGGCAGGCUUCGGUGGCGCGAUAGCGCCAACGUCCUCAACCUCCAAUGCAUCCCACCACAUGAUGAUGCCUGAAGAGCCUUGGUUUUUUG

Variants of: B1
Experiment: polymerase ribozyme fitness, log enrichment relative to wild type (log ratio); higher = more active; in vitro selection for triplet polymerase activity
How it was run: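 In triplicate, a single round of in vitro selection was run on each mutant library, PCR-built and transcribed, covering one subunit of a heterodimeric triplet polymerase ribozyme. Frozen incubation at −7 °C followed annealing with a biotinylated primer, partner subunit and triplets, and extended constructs were then gel-excised, streptavidin-captured and taken through RT-PCR. Fitness is the logarithm of genotype enrichment over wild-type enrichment, from inverse-variance-weighted replicate averages of Illumina-sequenced inputs and outputs. […] only genotypes with ≥10 input reads and ≥1 read per output were kept.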

Variant | polymerase ribozyme fitness (log ratio)
GACCAAUCUGUCCUCAGAGCUCGAGAACAUCUUCGGAUGCAGAGGAGGCAGGCUUCGGUGGCGCGAUAGCGCCAACGUCCUCAACCUCCAAUGCAUCCCACCACAUGGUGAUGCCUGUAGAGCCUUGGUUUUUUG | -3.04
GACCAAUCUGUCCUCAGAGCUCGAGAACAUCUUCGGAUGCAGAGGAGGCAGGCUUCGGUGGCGCGCUAGCGCCAACGUCCUCAACCUCCAAUGCAUCCCACCACAUGAUGAUGCCUGAAGAGCCUUGGUUUUUUG | -1.81
GACCAAUCUGUCGUCAGAGCUCGAGAACAUCUUCGGAUGCAGAGGAGGCAGGCUUCGGUGGCGCGCUAGCGCCAAGGUCCUCAACCUCCAAUGCAUCCCACCACAUGAUGAUGCCUGUAGAGCAUUGGUUUUAUG | -0.556
GACCAAUCUGUCCUCAGAGCUCGAGAACAUCUUCGGAUGCAGAGGAGGCAGGCUUCGGUGGCGCGAUAGCGCCAACGUCCUCGACCUCCAAUGCAUCCCACCACAUGAUGAUGCCUGAAGAGCCUUGGUUUUUUG | -1.21
GACCAAUCUGUCCUCAGAGCUCGAGAACAUCUUCGGAUGCAGAGGAGGCAGGCUUCGGUGGCGCGAUAGCGCCUACGUCCUCAACCUCCAAUGCAUCCCACCACAUGAUGAUACCUGAAGAGCCUUGGUUUUUUG | -2.56
GACCAAUCUGUGCUCAGAGCUCGAGAACAUCUUCGGAUGCAGAGGAGGCAGGCUUAGGUGGCGCGAUAGCGCCAACGUCCUCAACCUUCAAUGCAUCCCACCACAUGAUGAUGCCUGAAGAGCCUUGGUUUUUUG | -1.97
GACCAAUCUGUCGUCAGAGCUCGAGAACAGCUUCGGAUGCAGAGGAGGCAGGCUACGGUGGCGCGAUAGUGCCAACGUCCUCAACCUCCAAUGCAUCCCACCACAUGUUGAUGCCUGAAGAGCCUUGGUUUUUUG | -3.69
GACCAAUCUGUCCUCAGAGCUCGAGAACAUCUUCGGAUGCAGAGGAGGCAGGCUUCGGUGGCGCGAUAGCGCCAACGUCCUCACCCUCCAAGGCAUCCCACCACAUGAUGAUGCCUGAAGAGCCUUGGUUUUUUG | -3.8
GACCAAUCUGUCCUCAGAGCUCGAGAACAUCUUCGGAUGCAGAGGAGGCAGGCUUCGGUGGCGCGAUAGCGCCAGCGUCCUCAACCUCCAAUGCAUCCCACCACAUGAUGAUGCCUGAAGAGCCUUGGUUUUUUG | -0.146
GACCAAUCUGUCGUCAGAGCUCGGGAACAUCUUCGGAUGCAGAGGACGAAGGCUUCGGUGGCGCGAUAGCGCCAACGUCCUCAACCUGCAAUGUAUCCCACCACAUGUUGAUGUCUGAAGAGCCUUGGUUUUUUG | -6.99
GACCAAUCUGUCCUCAGAGCUCGAGAACAUCUUCGGAUGCAGAGGAGGCAGGCUUCGGUGGCGCGAUAGCGCCAACGUCCUCAACCUCCAAUGCAUCCCACCACAUGAUGAUGCCUGAAGCGCCUUGGUUUUUUG | 1.76
GACCAAUCUGUCAUCAGAGCUUGAGAACAUCUUCGGAUGCAGAGGAGGCAGGCUGCGGUGGCGCGAUAGCGCCAACGUCCUCAACCUCCAAUGCAUCCCACCACAUGAUGAUGCCUGAAGAGCCUUGGUUUUUUG | -4.69
GACCAAUCUGUCCUCAGAGCUCGAGAACAUCUUCGGAUGCAGAGGAGGCAGGCUUCGGUGGCGCGAUAGCGCCAACGUCCUCCACCUCCAAUACAUCCCACCACAUGAUGAUGCCUGAAAAGCCUUGGUUCUUUG | 0.209
GACCAAUCUGUCCUCAGAGCUCGAGAACAUCUUCGGAUGCAGAGGUCGCAGUCUCCGGUGGCGCGAUAGCGCCAACGUCCUCAACCUCCAAUGCAUCCCACCACAUGAUGAUGCCUUAAGAGCCUUGGUUUUUUG | -6.86
GACCAAUCUGUUCUCAGAGCUCGAGAACUUCUUCGGAUGCAGAGGAGGCAGGCUUCGGUGGCGCGAUAGCGCCAACGUCCUCAACCUCCAAUGCAUCCCACCACAUGAUUAUGCCUGAAGACACUUGGUUUUUUG | -0.893
GACCAAUCUGUCCUCAGAGCUCGAGAACAUCUUCGGAUGCAGAGGAGGCAGGCUUCGGUGGCGCGAUAGCGCCAACGUCCUCUACCUCCAAUGCAUCCCAGCACAUGAUGAUGCCUGAAGAGCCUUGGUUUUUUG | -2.28
GACCAAUCUGUCCUCAGAGCUCGAGAACAUCUUCGGAUGCAGAGGAGGCUGGCUUCAGUGGCGCGAUAGCGCCAACGUCCUCAACCUCCAAUGCAUCCCACCACAUGAUGAUGCCUGAAGAGCCUUGGUUUUUUG | -1.89
GACCAAUCUGUCCUCAGAGCUCGAGAACAUCUUCGGAUGCAGAGGAGGCAGGCUUCGGUGGCGCGAUAGCGCCAACGUCCUCAACCUCCGAUGCAUGCCACCACAUGAUGAUGCCUGAAGAGCCUUGGCUUUUUG | -5.59
GACCAAUCUGUCCUCAGAGCUCGAGAACAUCUUCGGAUGCAGAGGAGGCAGGCUUCGGUGGCGCGAUAGCGCCAACGUCCUCAUCCUCUAAUGCAUCCCACCACAUGAUGAUGCCUGAAGAGCCUUGGUUUUUUG | -1.61
GACCAAUCUGUCGUCAGAGCUCGAGAACAUCUUCGGAUGCAGAGGAGGCAGGCUUCGGUGGCGCGAUAGCGCCAACGUCCUCAACCUCCAAUGCAUCCCACCACAUGAUGAUGACUGAAGAGCCUUGGUUUUUUG | -4.11
GACCAAUCUGUCCUCAGAGCUCGAGAACAUCUUCGGAUGCAGAGGAGGCAGGCUUCGGUGGCGCGGUAGCGCCAACGUCCUCAACCGCCAAUGCAUCCCACCACAUGAUGAUUCCUGAAGAGCCUUGGUUUUUUG | -5.47
